Data reported in the RNAGym collection of RNA variant scans (doi:10.1073/pnas.2313332121).
Fewer inactive variants are shown than the library holds.

B1: TPR 5TU (parent)
chain: GGAUCUUCUCGAUCUAACAAAAAAGACAAAUCUGCCACAAAGCUUGAGAGCAUCUUCGGAUGCAGAGGCGGCAGCCUUCGGUGGCGCGAUAGCGCCAACGUUCUCAACUAUGACACGCAAAACGCGUGCUCCGUUGAAUGGAGUUUAUCAUG

Variants of: B1
Assay: polymerase ribozyme fitness, log enrichment relative to wild type (log ratio); higher = more active; in vitro selection for triplet polymerase activity
Summary of the method: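 After PCR construction and transcription, each subunit's mutant library from a heterodimeric triplet polymerase ribozyme was annealed with a biotinylated primer, the partner subunit and triplets. Incubation was frozen, at −7 °C, and extended constructs were gel-excised, bound to streptavidin beads and amplified by RT-PCR, in one selection round done in triplicate. Fitness is the logarithm of a genotype's enrichment divided by that of the wild type, from inverse-variance-weighted replicate averages of Illumina-sequenced inputs and outputs. The base of the logarithm is 2, and genotypes needed ≥10 input reads and ≥1 read per output.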

Row | Variant | polymerase ribozyme fitness (log ratio)
1 | GGAUCUUCUCGAUCUAACAAAAAAGACAAAUCUGCCACAAAGCUUGAGAGCAUCUUCGGAUGCAGAGGCGGCAGCCUUCGGUGGCUCGAUAGCGCCAACGUUCUCAACUAUGACACGCAAAGCGCGUGCUCCGUUGAAUGGAGUUUAUCAUG | -2.43
2 | GGAUCUUCUCGAUCUAACAAAAAAGACAAAUCUGCCACAAAGCUUGAGAGCAUCUUCGGAUGCAGAGGCGGCAGCCUUCGGUGGCUCGAUAGCGCCAACGUUCUCAACUAUGACACGCAAAUCGCGUGCUCCGUUGAAUGGAGUUUAUCAUG | -1.8
3 | GGAUCUUCUCGAUCUAACAAAAAAGACAAAUCUGCCACAAAGCUUGAGAGCAUCUUCGGAUGCAGAGGCGGCAGCCUUCGGUGGCUCGAUAGCGCCAACGGUCUCAACUAUGACACGCAAAACGCGUGCUCCGUUGAAUGGAGUUUAUCAUG | -2.21
4 | GGAUCUUCUCGAUCUAACAAAAAAGACAAAUCUGCCACAAAGCUUGAGAGCAUCUUCGGAUGCAGAGGCGGCAGCCUUCGGUGGUGCGAUAGCGCCAACGUUCUCAACUAUGACACGCAAAACGCGUGCUCCGUUGAAUGGAGCUUAUCAUG | 0.118
5 | GGAUCUUCUCGAUCUAACAAAAAAGACAAAUCUGCCACAAAGCUUGAGAGCAUCUUCGGAUGCAGAGGCGGCAGCCUUCGGUGGCGAGCUAGCGCCAACGUUCUCAACUAUGACACGCAAAACCCGUGCUCCGUUGAAUGGAGUUUAACAUG | ≤ -4.2
6 | GGAUCUUCUCGAUCUAACAAAAAAGACAAAUCUGCCACAAAGCUUGAGAGCAUCUUCGGAUGCAGAGGCGGCAGCCUUCGGUGGCGAGAUAGCGCCAACGUUCUCAACUAUGACACGCAAAACGCGUGCUCCGUUGAAUGGAGUUUAUCAUG | ≤ -4.2
7 | GGAUCUUCUCGAUCUAACAAAAAAGACAAAUCUGCCACAAAGCUUGAGAGCAUCUUCGGAUGCAGAGGCGGCAGCCUUCGGUGGCCCGAUAGGGCCAACGUUCUUAACUAUGACACGCAAAACGCGUGCUCCGUUGAAUGGAGUUUAUCAUG | 0.694
8 | GGAUCUUCUCGAUCUAACAAAAAAGACAAAUCUGCCACAAAGCUUGAGAGCAUCUUCGGAUGCAGAGGCGGCAGCCUUCGGUGGCACGUUAGCGCCAACGUUCUCAACUAUGACACGCAAAACGCGUGCUCCGUUGAAUGGAGCUUAUCAUG | -1.64
9 | GGAUCUUCUCGAUCUAACAAAAAAGACAAAUCUGCCACAAAGCUUGAGAGCAUCUUCGGAUGCAGAGGCGGCAGCCUUCGGUGGCCCGAUAGCGCCAAGGUUCUCGACUAUGACACGCAAAACUCGUGCUCCGUUAAAUGGAGUUUACCAUG | ≤ -4.2
10 | GGAUCUUCUCGAUCUAACAAAAAAGACAAAUCUGCCACAAAGCUUGAGAGCAUCUUCGGAUGCAGAGGCGGCAGCCUUCGGUGGCUCGAUAGCGCCAACGUUCUCAACUAUGACACGCAAAACGCGUGCUCCGUUGAAUGGAGAUUAUCAUG | -3.12
11 | GGAUCUUCUCGAUCUAACAAAAAAGACAAAUCUGCCACAAAGCUUGAGAGCAUCUUCGGAUGCAGAGGCGGCAGCCUUCGGUGGCACGAUAGCGCCAACGUUCUCAACUACGACACGCAAAACGCGUGCUCCGUUGAAUGGAGUUUAUCAUG | -3.31
12 | GGAUCUUCUCGAUCUAACAAAAAAGACAAAUCUGCCACAAAGCUUGAGAGCAUCUUCGGAUGCAGAGGCGGCAGCCUUCGGUGGCACGAUAGCGCCAACGUUCUCAACUAUGACACGCAAAACGCGUGCUCCGUUGAAUGCAGUUUAUCAUG | -1.01
13 | GGAUCUUCUCGAUCUAACAAAAAAGACAAAUCUGCCACAAAGCUUGAGAGCAUCUUCGGAUGCAGAGGCGGCAGCCUUCGGUGGCCCGAUAGCGCCUUCGUUCUCAACUAUGACACGCAAAACGCGUGCUCCGUUGAAUGGAGUUUAUCAUG | -3.05
14 | GGAUCUUCUCGAUCUAACAAAAAAGACAAAUCUGCCACAAAGCUUGAGAGCAUCUUCGGAUGCAGAGGCGGCAGCCUUCGGUGGCACGAUAGGGCCAAGGUUCUCAACUAUGACACGCAAAACGCGUGCUCCGUUGAAUGGAGUUAAUCAUG | -3.32
15 | GGAUCUUCUCGAUCUAACAAAAAAGACAAAUCUGCCACAAAGCUUGAGAGCAUCUUCGGAUGCAGAGGCGGCAGCCUUCGGUGGCCCGAUAGCGCCAACGUUCUCAACUAUGACACGCAAAACGCGUGCUCCGUUGGAUGGAGUUUAUCAUG | -3.37
16 | GGAUCUUCUCGAUCUAACAAAAAAGACAAAUCUGCCACAAAGCUUGAGAGCAUCUUCGGAUGCAGAGGCGGCAGCCUUCGGUGGCACGGUAGCGCCAACGUUCUCAACUAUGACACGCAAAACGCGUGCUCCGUUGAAUGGAGUUUAUCAUG | -3.55
17 | GGAUCUUCUCGAUCUAACAAAAAAGACAAAUCUGCCACAAAGCUUGAGAGCAUCUUCGGAUGCAGAGGCGGCAGCCUUCGGUGGCUCGAUAGCGCCAACGUUCUCAACUAUGACACGCAAAACGCGUGCUCCGUUGAAUGGAGUUUAUUAUG | -2.48
18 | GGAUCUUCUCGAUCUAACAAAAAAGACAAAUCUGCCACAAAGCUUGAGAGCAUCUUCGGAUGCAGAGGCGGCAGCCUUCGGUGGCUCGAUAGCGCCAAUGUUGUCAACUAUGACACGCAAAACGCGUGCUGCGUUGAAUGGAGUUUAUCAUG | ≤ -4.2
19 | GGAUCUUCUCGAUCUAACAAAAAAGACAAAUCUGCCACAAAGCUUGAGAGCAUCUUCGGAUGCAGAGGCGGCAGCCUUCGGUGGCGAGAUAGCGCCGACGUUCUCAACUAUGACACGCAAAACGCGUGCUCCGUUGAAUGGAGUUUAUCAUG | ≤ -4.2

Row | Variant | polymerase ribozyme fitness (log ratio)
20 | GGAUCUUCUCGAUCUAACAAAAAAGACAAAUCUGCCACAAAGCUUGAGAGCAUCUUCGGAUGCAGAGGCGGCAGCCUUCGGUGGCAUGAUAGCGCCAACGUUCUCAACUAUGACACGCAAAACGCGUGCUCCGUUGAAUGGAGUUUAUCAUG | -3.65
21 | GGAUCUUCUCGAUCUAACAAAAAAGACAAAUCUGCCACAAAGCUUGAGAGCAUCUUCGGAUGCAGAGGCGGCAGCCUUCGGUGGCUCGAUAGCGCCACCGCUCUCAACUAUGACACGCAAAACGCGUGCUCCGUUGAAUGGAGUUUAUCAUG | -0.908
22 | GGAUCUUCUCGAUCUAACAAAAAAGACAAAUCUGCCACAAAGCUUGAGAGCAUCUUCGGAUGCAGAGGCGGCAGCCUUCGGUGGCUCGAUAGCGCCUACGUUCUCAACUAUGACACGCAAAACGCGUGCUCCGUUGAAUGGAGUUUAUCAUG | -1.74
23 | GGAUCUUCUCGAUCUAACAAAAAAGACAAAUCUGCCACAAAGCUUGAGAGCAUCUUCGGAUGCAGAGGCGGCAGCCUUCGGUGGCUCGAUAGCGCCAACGUUCUCAACUAUGACAGGCAAAACGCGUGCUCCGUUGAAUGGAGUUUAUCAUG | -1.04
24 | GGAUCUUCUCGAUCUAACAAAAAAGACAAAUCUGCCACAAAGCUUGAGAGCAUCUUCGGAUGCAGAGGCGGCAGCCUUCGGUGGCUCGAUAGCGCCAACGUUCUCAACUAUGACAUGCAAAACGCGUGCUCCGUUGAAUGGAGUUUAUCAUG | -1.03
25 | GGAUCUUCUCGAUCUAACAAAAAAGACAAAUCUGCCACAAAGCUUGAGAGCAUCUUCGGAUGCAGAGGCGGCAGCCUUCGGUGGCACGAUAGCACCAACGUUCUCAACUGUGACACGCAAAACGCGUGCUCCGUUGAAUGGAGUUUAUCAUG | ≤ -4.2
26 | GGAUCUUCUCGAUCUAACAAAAAAGACAAAUCUGCCACAAAGCUUGAGAGCAUCUUCGGAUGCAGAGGCGGCAGCCUUCGGUGGCUCGAUAGCGCCUACGUUCUCAACUAUGACACGCAAAACGCGUGCUCAGUUGAAUGGAGUUUAUCAUG | ≤ -4.2
27 | GGAUCUUCUCGAUCUAACAAAAAAGACAAAUCUGCCACAAAGCUUGAGAGCAUCUUCGGAUGCAGAGGCGGCAGCCUUCGGUGGCUCGGUAACGCCAACGUUCUCAACUAUGACACGCAAAACGCGUGCUCCGUUGAAUGGAGUUUAUCAUG | ≤ -4.2
28 | GGAUCUUCUCGAUCUAACAAAAAAGACAAAUCUGCCACAAAGCUUGAGAGCAUCUUCGGAUGCAGAGGCGGCAGCCUUCGGUGGCGAGAUCGCGCCAACGUUCUCAACUAUGACACGCAAAACGCGUGCUCCGUUGAAUGGAGUUUAUCAUG | ≤ -4.2
29 | GGAUCUUCUCGAUCUAACAAAAAAGACAAAUCUGCCACAAAGCUUGAGAGCAUCUUCGGAUGCAGAGGCGGCAGCCUUCGGUGGCUCGAUAGCGCCAACGUUCUCAACUAUGACACGCAAUACGCGUGCUCCGUUGAAUGGAGUUUAUCAUG | -0.702
30 | GGAUCUUCUCGAUCUAACAAAAAAGACAAAUCUGCCACAAAGCUUGAGAGCAUCUUCGGAUGCAGAGGCGGCAGCCUUCGGUGGUGCGAUAGCGCCAACGUUCUCAACUAUGACACGCAAAACGCGUGCUCCGUUGAAUGGAGUUCAUCAUG | -0.574
31 | GGAUCUUCUCGAUCUAACAAAAAAGACAAAUCUGCCACAAAGCUUGAGAGCAUCUUCGGAUGCAGAGGCGGCAGCCUUCGGUGGCUCGAUAGAGCCAACGUUCUCAACUAUGACACGCAAAACGCGUGCUCCGUUGAAUGGAGUUUAUCAUG | -0.194
32 | GGAUCUUCUCGAUCUAACAAAAAAGACAAAUCUGCCACAAAGCUUGAGAGCAUCUUCGGAUGCAGAGGCGGCAGCCUUCGGUGGCCCGAUAGCGCCAACGUUCUCAACUAUGACACGCAAAACGCGUGCUCCGUAGAAUGGAGUUUAUCAUG | -3.03
33 | GGAUCUUCUCGAUCUAACAAAAAAGACAAAUCUGCCACAAAGCUUGAGAGCAUCUUCGGAUGCAGAGGCGGCAGCCUUCGGUGGCUCGAUAGCGCUAACGUUCUCAACUAUGACACGCAAAACGCGUGCUCCGUUGAAUGGAGUUUAUCAUG | -2.68
34 | GGAUCUUCUCGAUCUAACAAAAAAGACAAAUCUGCCACAAAGCUUGAGAGCAUCUUCGGAUGCAGAGGCGGCAGCCUUCGGUGGCUCGAUAGCGCCAACGUUCUCAGCUAUGACAAGCAAAACGCGUGCUCCGUUUACUGGAGUUUAUCAUG | ≤ -4.2
35 | GGAUCUUCUCGAUCUAACAAAAAAGACAAAUCUGCCACAAAGCUUGAGAGCAUCUUCGGAUGCAGAGGCGGCAGCCUUCGGUGGCUCGUUAGCGCCAACGUUCUCAACUAUGACACGCAAAACGCGUGCUCCGUUGAAUGGAGUUUAUCAUG | -2.62
36 | GGAUCUUCUCGAUCUAACAAAAAAGACAAAUCUGCCACAAAGCUUGAGAGCAUCUUCGGAUGCAGAGGCGGCAGCCUUCGGUGGCACGAUAGCGCCAACGUUCUCAACUAUGACACGCAAAACGCGUGCUCCGUUGAAUGGAGUUUAACAUG | -3.4
37 | GGAUCUUCUCGAUCUAACAAAAAAGACAAAUCUGCCACAAAGCUUGAGAGCAUCUUCGGAUGCAGAGGCGGCAGCCUUCGGUGGCUCGAUAGCGCCAACGUUCUCAACUAUGACACGCAAAACGCGUGCUCCGUUGAAUGGAGUUUAUCAUU | ≤ -4.2
38 | GGAUCUUCUCGAUCUAACAAAAAAGACAAAUCUGCCACAAAGCUUGAGAGCAUCUUCGGAUGCAGAGGCGGCAGCCUUCGGUGGCCCGAUAGCGCCAACGUUCUGAACUAUGACACGCAAAACGCGUGCUCCGUUGAAUGGAGUUUAUCAUG | -3.67
